The target in experiment [1] is Recombinant canine IL-31 produced in CHO cells (canine). The experiment in a line: SPR (Biacore), IL-31 amine-coupled to the chip, mAb in solution, 1:1 fit. For orientation: SPR reads the build-up and loss of mass on a sensor chip optically.
The target is the same in experiment [2]. The experiment in a line: cell-based or functional assay.
For experiment [3] the target is unchanged. The experiment in a line: SPR (Biacore), IL-31 amine-coupled to the chip, mAb in solution, 1:1 fit; Biacore affinity (SPR); weak, about 0.5 uM; not active in the DH82 pSTAT assay.
Experiment [4] has the same target.

As a reminder, the Kd is a measure of binding affinity in units of concentration.

Recombinant canine IL-31 produced in CHO cells (canine), sequence (chain, as listed by the source limits assumed, form in doubt): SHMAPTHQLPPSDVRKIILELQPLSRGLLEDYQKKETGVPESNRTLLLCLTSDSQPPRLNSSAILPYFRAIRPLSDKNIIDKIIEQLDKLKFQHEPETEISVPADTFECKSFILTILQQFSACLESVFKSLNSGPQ

B1: Caninized 19D07 (antibody, V domains shown)
VH: EVQLVESGGDLVKPGGSLRLSCVASGFTFSSYDMSWVRQAPGKGLQWVATITSGGGYTYSADSVKGRFTISRDNARNTLYLQMNSLRSEDTAVYYCARQNWVVGLAYWGQGTLVTVSS
VL: EIVMTQSPASLSLSQEEKVTITCKSSQSLLNSGNQKNYLAWYQQKPGQAPKLLIYGASTRESGVPSRFSGSGSGTDFSFTISSLEPEDVAVYYCQNDYSYPYTFGQGTKLEIKR
As for B1, the Kd in experiment [1] is 923 pM.

B2: Mouse 11E12 (antibody, V domains shown)
VH: QVQLQQSGAELVKPGASVKLSCKASGYTFKYYDINWVRQRPEQGLEWIGWIFPGDGGTKYNETFKGKATLTTDKSSSTAYMQLSRLTSEDSAVYFCARGGTSVIRDAMDYWGQGTSVTVSS
VL: DIVLTQSPASLAVSLGQRATISCRASESVDNYGISFMHWYQQKPGQPPKLLIYRASNLESGIPARFSGSGSRTDFTLTINPVETDDVATYYCQQSNKDPLTFGAGTKLELK
With B2, in experiment [1], the Kd was 0.893 pM. Further, in experiment [2], the DH82 pSTAT Assay, Co-incubation IC50 was determined as 1.61 µg/ml and the DH82 pSTAT Assay, Pre-treatment IC50 came out at 2.28 µg/ml.

B3: Chimeric 11E12 (antibody, V domains shown)
VH: QVQLQQSGAELVKPGASVKLSCKASGYTFKYYDINWVRQRPEQGLEWIGWIFPGDGGTKYNETFKGKATLTTDKSSSTAYMQLSRLTSEDSAVYFCARGGTSVIRDAMDYWGQGTSVTVSS
VL: DIVLTQSPASLAVSLGQRATISCRASESVDNYGISFMHWYQQKPGQPPKLLIYRASNLESGIPARFSGSGSRTDFTLTINPVETDDVATYYCQQSNKDPLTFGAGTKLELKR
For B3, the Kd in experiment [1] was determined as 0.268 pM. For the same molecule, in experiment [2], the DH82 pSTAT Assay, Co-incubation IC50 was found to be 1.48 µg/ml and the DH82 pSTAT Assay, Pre-treatment IC50 was 1.57 µg/ml.

B4: 11E12 Heterochimera (antibody, V domains shown)
VH: EVQLVQSGAEVKKPGASVKVSCKTSGYTFKYYDINWVRQAPGAGLDWMGWIFPGDGGTKYNETFKGRVTLTADTSTSTAYMELSSLRAGDIAVYYCARGGTSVIRDAMDYWGQGTLVTVSS
VL: DIVLTQSPASLAVSLGQRATISCRASESVDNYGISFMHWYQQKPGQPPKLLIYRASNLESGIPARFSGSGSRTDFTLTINPVETDDVATYYCQQSNKDPLTFGAGTKLELKR
With B4, in experiment [1], the Kd turned out to be 4.97 pM. Besides, in experiment [2], the DH82 pSTAT Assay, Co-incubation IC50 worked out at 2.67 µg/ml and the DH82 pSTAT Assay, Pre-treatment IC50 was 3.35 µg/ml.

B5: Caninized 11E12 (antibody, V domains shown)
VH: EVQLVQSGAEVKKPGASVKVSCKTSGYTFKYYDINWVRQAPGAGLDWMGWIFPGDGGTKYNETFKGRVTLTADTSTSTAYMELSSLRAGDIAVYYCARGGTSVIRDAMDYWGQGTLVTVSS
VL: DIVMTQTPLSLSVSPGEPASISCRASESVDNYGISFMHWFQQKPGQSPQRLIYRASNLESGVPDRFSGSGSGTDFTLRISRVEADDAGVYYCQQSNKDPLTFGAGTKLEIKR
With B5, the Kd in experiment [3] was 506000 pM.

B6: Caninized 11E12 13 (antibody, V domains shown)
VH: EVQLVQSGAEVKKPGASVKVSCKTSGYTFKYYDINWVRQAPGAGLDWMGWIFPGDGGTKYNETFKGRVTLTADTSTSTAYMELSSLRAGDIAVYYCARGGTSVIRDAMDYWGQGTLVTVSS
VL: DIVMTQTPLSLSVSPGEPASISCRASESVDNYGISFMHWFQQKPGQSPQLLIYRASNLESGVPDRFSGSGSGTDFTLRISRVEADDAGVYYCQQSNKDPLTFGAGTKLEIKR
As for B6, in experiment [1], the equilibrium dissociation constant (Kd) came to 5.16 pM. In experiment [2], the DH82 pSTAT Assay, Co-incubation IC50 amounted to 5.49 µg/ml and the DH82 pSTAT Assay, Pre-treatment IC50 turned out to be 5.18 µg/ml.

B7: Caninized 11E12 FW2 (antibody, V domains shown)
VH: EVQLVQSGAEVKKPGASVKVSCKTSGYTFKYYDINWVRQAPGAGLDWMGWIFPGDGGTKYNETFKGRVTLTADTSTSTAYMELSSLRAGDIAVYYCARGGTSVIRDAMDYWGQGTLVTVSS
VL: DIVMTQTPLSLSVSPGEPASISCRASESVDNYGISFMHWYQQKPGQPPKLLIYRASNLESGVPDRFSGSGSGTDFTLRISRVEADDAGVYYCQQSNKDPLTFGAGTKLEIKR
As for B7, the Kd in experiment [1] was found to be 147 pM. In experiment [2], the DH82 pSTAT Assay, Co-incubation IC50 was found to be 2.7 µg/ml and the DH82 pSTAT Assay, Pre-treatment IC50 was 5.31 µg/ml.

B8: Caninized 34D03 (antibody, V domains shown)
VH: EVQLVESGGDLVKPGGSLRLSCVASGFTFSNYGMSWVRQAPGKGLQWVATISYGGSYTYYPDNIKGRFTISRDNAKNTLYLQMNSLRAEDTAMYYCVRGYGYDTMDYWGQGTLVTVSS
VL: EIVMTQSPASLSLSQEEKVTITCKASQSVSFAGTGLMHWYQQKPGQAPKLLIYRASNLEAGVPSRFSGSGSGTDFSFTISSLEPEDVAVYYCQQSREYPWTFGQGTKLEIKR
Turning to B8, in experiment [1], the Kd was 29.1 pM. Besides, the IC50 (inhibition of canine IL-31 induced pSTAT signaling in canine DH82 monocytes) in experiment [4] worked out at 2.29 µg/mL. Besides, in experiment [2], the DH82 pSTAT Assay, Co-incubation IC50 amounted to 2.42 µg/ml and the DH82 pSTAT Assay, Pre-treatment IC50 was 2.25 µg/ml.

B9: Felinized 34D03 (antibody, V domains shown)
VH: DVQLVESGGDLVKPGGSLRLTCVASGFTYSNYGMSWVRQAPGKGLQWVATISYGGSYTYYPDNIKGRFTISRDNAKNTLYLQMNSLKTEDTATYYCVRGYGYDTMDYWGQGTLVTVSS
VL: EIQMTQSPSSLSASPGDRVTITCKASQSVSFAGTGLMHWYQQKPGKVPKLLIYRASNLEAGVPSRFSGSGSGTDFTLTISSLEPEDAATYYCQQSREYPWTFGQGTKLEIKR
For the molecule B9, the IC50 (inhibition of canine IL-31 induced pSTAT signaling in canine DH82 monocytes) in experiment [4] is 2.41 µg/mL.

B10: Mouse 34D03 (antibody, V domains shown)
VH: EVQLVESGGDLVKPGGSLKLSCAASGFSFSNYGMSWVRQTPDKRLEWVATISYGGSYTYYPDNIKGRFTISRDNAKNTLYLQMSSLKSEDTAMYYCVRGYGYDTMDYWGQGTSVTVSS
VL: DILLTQSPASLAVSLGQRAIISCKASQSVSFAGTGLMHWYQQKPGQQPKLLIYRASNLEAGVPTRFSGSGSRTDFTLNIHPVEEEDAATYFCQQSREYPWTFGGGTKLEIK
As to B10, the equilibrium dissociation constant (Kd) in experiment [1] was found to be 1.01 pM. Further, in experiment [2], the DH82 pSTAT Assay, Co-incubation IC50 is 1.73 µg/ml and the DH82 pSTAT Assay, Pre-treatment IC50 amounted to 2.28 µg/ml.

B11: Chimeric 34D03 (antibody, V domains shown)
VH: EVQLVESGGDLVKPGGSLKLSCAASGFSFSNYGMSWVRQTPDKRLEWVATISYGGSYTYYPDNIKGRFTISRDNAKNTLYLQMSSLKSEDTAMYYCVRGYGYDTMDYWGQGTSVTVSS
VL: DILLTQSPASLAVSLGQRAIISCKASQSVSFAGTGLMHWYQQKPGQQPKLLIYRASNLEAGVPTRFSGSGSRTDFTLNIHPVEEEDAATYFCQQSREYPWTFGGGTKLEIKR
Take B11: the Kd in experiment [1] worked out at 4.65 pM. For the same molecule, in experiment [2], the DH82 pSTAT Assay, Co-incubation IC50 amounted to 1.28 µg/ml and the DH82 pSTAT Assay, Pre-treatment IC50 worked out at 1.08 µg/ml.

B12: Mouse 19D07 (antibody, V domains shown)
VH: EVKLVESGGGLVKPGGSLKLSCAASGFAFSSYDMSWVRQIPEKRLEWVATITSGGGYTYSADSVKGRFTISRDNARNTLYLQMSSLRSEDTAVYYCARQNWVVGLAYWGQGTLVTVSA
VL: DIVMSQSPSSLSVSAGDKVTMSCKSSQSLLNSGNQKNYLAWYQQKPWQPPKLLIYGASTRESGVPDRFTGSGSGTDFTLTISSVQAEDLAVYYCQNDYSYPYTFGGGTKLEIK
As for B12, the dissociation constant Kd in experiment [1] came to 7.24 pM. Moreover, in experiment [2], the DH82 pSTAT Assay, Co-incubation IC50 was found to be 1.76 µg/ml and the DH82 pSTAT Assay, Pre-treatment IC50 was 3.46 µg/ml.

B13: Chimeric 19D07 (antibody, V domains shown)
VH: EVKLVESGGGLVKPGGSLKLSCAASGFAFSSYDMSWVRQIPEKRLEWVATITSGGGYTYSADSVKGRFTISRDNARNTLYLQMSSLRSEDTAVYYCARQNWVVGLAYWGQGTLVTVSA
VL: DIVMSQSPSSLSVSAGDKVTMSCKSSQSLLNSGNQKNYLAWYQQKPWQPPKLLIYGASTRESGVPDRFTGSGSGTDFTLTISSVQAEDLAVYYCQNDYSYPYTFGGGTKLEIKR
Regarding B13, the dissociation constant Kd in experiment [1] was 0.515 pM. Further, in experiment [2], the DH82 pSTAT Assay, Co-incubation IC50 worked out at 1.92 µg/ml and the DH82 pSTAT Assay, Pre-treatment IC50 came out at 1.33 µg/ml.
